The text below walks through data of the supplement of paper PMC10567573.

± gives the standard deviation.

A short description of the data set: protein stability index of a GFP-peptide fusion (GPS, HEK-293T) (PSI 1-6); higher = more stable.
The mark [1] stands for this setting: treatment: DMSO, c terminus: a fixed tail appended.
Where [2] appears, read: treatment: MLN4924 1 uM, 8 h, c terminus: a fixed tail appended.
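Further: 24-mer peptide tiles fused after GFP, lentivirally expressed, FACS-sorted into six equal bins by GFP/DsRed ratio, decoded by Illumina sequencing, PSI is the read-weighted mean bin number.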

Take APGTGPAQTELLCCLVKMESLEPD [FANCE]: the protein stability index reads like this: under setting [1], 3.28 ± 0.23; under setting [2], 3.39 ± 0.12.

In the case of CNCALEELRLVFGPLGDQLHAQLR [ELF3], the protein stability index was 2.46 ± 0.86 under setting [1] and 2.33 ± 0.38 under setting [2].

In the case of LSQAGQKTSAALSTVGSAISRKLG [TPD52L2], the protein stability index runs as follows: under setting [1], 3.67 ± 0.22; under setting [2], 3.92 ± 0.27.

For QSSLLETLYRNRSNLETIFRIIDS [PPEF2], the protein stability index reads like this: under setting [1], 2.17 ± 0.25; under setting [2], 2.15 ± 0.1.

In the case of MWVRFRAFEAARDLDACALVRGHR [ZSWIM9], the protein stability index under setting [1] came to 2.17 ± 0.25 and the protein stability index under setting [2] stood at 2.06 ± 0.22.

Consider VTMSSLFKHILRTEGAFGLYRGLA [SLC25A25], for which the protein stability index is, setting by setting: under setting [1], 2.5 ± 0.69; under setting [2], 2.65 ± 0.51.

Regarding PESPGGTTTLEGSPSVPCIFCEEH [ZNF277], the protein stability index worked out at 4.82 ± 0.3 under setting [1] and 4.82 ± 0.16 under setting [2].

Turning to LKRSHRESQFLMAKKNFNTNLLE [HESX1], the protein stability index runs as follows: (treatment: DMSO, c terminus: native) 3.36 ± 0.24; (treatment: MLN4924 1 uM, 8 h, c terminus: native) 3.62 ± 0.2.

As to EEIKKLTTDPDLILEVLRSSPMVQ [LARP4], the protein stability index turned out to be 2.39 ± 0.7 under setting [1] and 2.64 ± 0.64 under setting [2].

KFIKPWESPDEMELDELLKEISRK [PTPRD] displayed a protein stability index under setting [1] of 2.32 ± 0.41 and a protein stability index under setting [2] of 2.76 ± 0.38.

For the sequence SNKYGFGYQLSDHTVGVLFNNGAH [PLK2], the protein stability index is 2.61 ± 0.41 under setting [1] and 2.58 ± 0.5 under setting [2].

HEDLLTRIGEATKPDGTVEQIGHI [NET1]: the protein stability index runs as follows: under setting [1], 4.95 ± 0.13; under setting [2], 4.93 ± 0.17.

For AAFLALLRFLYSDEVQIGPETVMT [BTBD1], the protein stability index by setting is: under setting [1], 2.49 ± 0.78; under setting [2], 2.14 ± 0.004.

Consider ATPRQVPSLQHLCRMSIRRVMPTQ [WSB1], for which the protein stability index by setting is: under setting [1], 3.83 ± 0.23; under setting [2], 3.77 ± 0.15.

For ARVNENLARKIASRNEFDRTIAET [SSNA1], the protein stability index was found to be 3.95 ± 0.15 under setting [1] and 4.06 ± 0.2 under setting [2].

The sequence KRSWEEHVTHWMGQPFNSDDRNTA [DLC1] had a protein stability index under setting [1] of 3.12 ± 0.47 and a protein stability index under setting [2] of 3.52 ± 0.52.

KAGFTASPFTNLLNGSSQPTTRNY [CDC14A]: the protein stability index runs as follows: under setting [1], 3.38 ± 0.19; under setting [2], 3.39 ± 0.18.

Consider WATRKPPAPKSTYECRCIGEEKEM [TIA1], for which the protein stability index is, setting by setting: under setting [1], 2.98 ± 0.44; under setting [2], 3.4 ± 0.58.

Sequence LAARSGAAYGPGARGEDRAGPQSP [TSPAN10] yielded a protein stability index under setting [1] of 5.15 ± 0.22 and a protein stability index under setting [2] of 4.9 ± 0.09.

As to KVEKMLISSIKEKYPSHSFIGEES [IMPA1], the protein stability index runs as follows: under setting [1], 3.26 ± 0.2; under setting [2], 3.17 ± 0.14.

Consider FTRKTLAEKKQELDKLRNEWASHT [SASS6], for which the protein stability index by setting is: under setting [1], 3.15 ± 0.47; under setting [2], 3.77 ± 0.6.

As for RIATETDQIGSEIIEELGEQRDQL [VTI1B], the protein stability index by setting is: under setting [1], 5.38 ± 0.2; under setting [2], 5.37 ± 0.14.

Consider NNQDFIPFTKKRVGVDRAFPLKPM [ZC2HC1C], for which the protein stability index reads like this: under setting [1], 2.85 ± 0.39; under setting [2], 3.26 ± 0.45.

YLHTVSDCDTSSICEDSFDGRSLS [SCARA5]: the protein stability index under setting [1] was determined as 4.37 ± 0.13 and the protein stability index under setting [2] was 4.51 ± 0.14.

On to GHQPGTGPGDGPPEIAQNFSAPDP [SMTNL2], for which the protein stability index under setting [1] was determined as 5.23 ± 0.098 and the protein stability index under setting [2] stood at 5.46 ± 0.15.

Turning to ASSSPVTLRQKTVDWRRVSRLQED [SLA], the protein stability index under setting [1] is 3.9 ± 0.36 and the protein stability index under setting [2] is 3.77 ± 0.32.

Consider EIIELRRTVNALEIELQAQHNLRY [KRT33B], for which the protein stability index runs as follows: under setting [1], 2.21 ± 0.22; under setting [2], 2.08 ± 0.14.

Consider VFEYCDHTLLNELERNPNGVADGV [CDKL4], for which the protein stability index runs as follows: under setting [1], 3.89 ± 0.57; under setting [2], 4.03 ± 0.55.

With TITIGMFPAVTVEVKSSIAGSSTW [SLC29A1], the protein stability index by setting is: under setting [1], 2.58 ± 0.6; under setting [2], 2.4 ± 0.5.

As to VAKLQESQPGNAVIDKETIDLLAF [SDE2], the protein stability index runs as follows: under setting [1], 2.98 ± 0.48; under setting [2], 3.29 ± 0.37.

With YLVENNANISIANKYDNTCLMIAA [FEM1B], the protein stability index was determined as 2.38 ± 0.1 under setting [1] and 2.21 ± 0.22 under setting [2].

DYNPPRVQLSDEMFVFQDGRWVNE [CBY2]: the protein stability index was 4.48 ± 0.23 under setting [1] and 4.37 ± 0.36 under setting [2].

Take SSSCAVHDLIFWRDVKKTGFVFGT [RTN3]: the protein stability index is, setting by setting: under setting [1], 2.71 ± 0.52; under setting [2], 2.58 ± 0.52.

In the case of PSTVGAEAQEEFLRVLGSMCQRLR [DFFB], the protein stability index is, setting by setting: under setting [1], 2.28 ± 0.34; under setting [2], 2.2 ± 0.32.

As to GKAVVSHSKGHKSSRQEKRPLCAQ [ELOA2], the protein stability index under setting [1] came out at 4.61 ± 0.29 and the protein stability index under setting [2] was 4.64 ± 0.44.

ENSHTNTEVLRNMGFAAKAMKSVH [CHMP4C]: the protein stability index reads like this: under setting [1], 3.61 ± 0.28; under setting [2], 3.77 ± 0.23.

Turning to AKRLWKVCVEHHTFFRLLLPEAPP [EPB41L3], the protein stability index runs as follows: under setting [1], 2.48 ± 0.88; under setting [2], 2.42 ± 0.76.

As for LHELSSRVEASHLTTSQERELGIR [FBF1], the protein stability index under setting [1] amounted to 4.46 ± 0.17 and the protein stability index under setting [2] worked out at 4.36 ± 0.25.

Take VVCRQLGLGFASNAFQETWYWHGD [LOXL2]: the protein stability index runs as follows: under setting [1], 2.55 ± 0.55; under setting [2], 2.42 ± 0.31.

For SIDFNKDGHIDINEFLEAFRLVEK [PPEF2], the protein stability index reads like this: under setting [1], 2.88 ± 0.17; under setting [2], 3.32 ± 0.4.

NQGTQITVEDLFYNIATRRKALKN [MLH1]: the protein stability index by setting is: under setting [1], 3.29 ± 0.32; under setting [2], 3.37 ± 0.48.

Consider GKEVKVNWATTPSSQKKDTSSSTV [TIA1], for which the protein stability index under setting [1] worked out at 4.76 ± 0.21 and the protein stability index under setting [2] was found to be 4.92 ± 0.36.

MIRKGGDQTSLLVVDKETDNMYRL [PDZK1] had a protein stability index under setting [2] of 3.17 ± 0.25.

With GTLLFYIGGHLVRDNDHPDHSSRE [FUT8], the protein stability index runs as follows: under setting [1], 2.3 ± 0.59; under setting [2], 2.55 ± 0.58.

Regarding SLEMDSDEDDSEELEEDDGHGAEQ [EHMT1], the protein stability index was determined as 5.45 ± 0.27 under setting [1] and 5.62 ± 0.38 under setting [2].

For CEYETRLPGNHSTSQEIFRQRFRH [ZNF232], the protein stability index worked out at 3.48 ± 0.25 under setting [1] and 3.4 ± 0.17 under setting [2].

In the case of MTEPWLALGTSWTLPLQDRELGPE [CABP4], the protein stability index was found to be 3.54 ± 0.39 under setting [1] and 4.16 ± 0.2 under setting [2].

As for EQLLVLVEWAKYIPAFCELPLDDQ [HNF4A], the protein stability index is 2.57 ± 0.78 under setting [1] and 2.46 ± 0.42 under setting [2].

As for AAHPPLPLLPPAMGTEPAPSAPEA [TBX6], the protein stability index came to 5.45 ± 0.24 under setting [1] and 5.52 ± 0.21 under setting [2].

As for NEFLCTLQKKLDNLQCLYCEKTFR [ZNF277], the protein stability index amounted to 2 ± 0.4 under setting [1] and 2.38 ± 0.32 under setting [2].

On to QAQMIHPKPADFRNPGPGRHRLIT [INTS4], for which the protein stability index by setting is: under setting [1], 3.94 ± 0.26; under setting [2], 3.92 ± 0.24.

Regarding TEMAASSQGNFEGNFESLDLAEFA [FUNDC2], the protein stability index worked out at 5.21 ± 0.42 under setting [1] and 5.1 ± 0.44 under setting [2].

On to LILSIIFIEGYCTPEEVIWEALNM [MAGEA10], for which the protein stability index came out at 3.32 ± 0.44 under setting [1] and 3.21 ± 0.79 under setting [2].

With WGVCEPQREEVEERMWAAIQSWDI [ZER1], the protein stability index by setting is: under setting [1], 3.35 ± 0.22; under setting [2], 3.56 ± 0.3.

As for GTLTPRMTTDFDLSLDNSPLLQSI [TRIM9], the protein stability index runs as follows: under setting [1], 3.43 ± 0.28; under setting [2], 3.48 ± 0.36.

IRLVCSRGNRLKTTSWGLLSLGAL [SCNN1D]: the protein stability index runs as follows: under setting [1], 3.2 ± 0.45; under setting [2], 3.07 ± 0.54.

With PSEPSAPLPAGVPPLEDFEVLDGV [FKBP8], the protein stability index is, setting by setting: under setting [1], 5.49 ± 0.18; under setting [2], 5.53 ± 0.11.

NNWYYISPRLTFQCLEDLVNHYSE [SLA]: the protein stability index is, setting by setting: under setting [1], 2.44 ± 0.35; under setting [2], 2.23 ± 0.38.

As to LDKLRNEWASHTAALTNKHSQELT [SASS6], the protein stability index is, setting by setting: under setting [1], 3.85 ± 0.33; under setting [2], 3.83 ± 0.3.

As to IVVSLQSKLASMSNDFKSVLEVRT [STX5], the protein stability index amounted to 2.7 ± 0.65 under setting [1] and 2.64 ± 0.72 under setting [2].

In turn, TSVEEESFGPQPISRLEQCGINAN [RAD51] came in with a protein stability index under setting [1] of 4.63 ± 0.39 and a protein stability index under setting [2] of 4.63 ± 0.18.

LGNLVEGMDFHRFYFENALSKSNK [CAMK2D]: the protein stability index came out at 2.89 ± 0.2 under setting [1] and 3.23 ± 0.066 under setting [2].

Turning to FQKGQVTRDGFKLVMASLYHIYVA [HMOX1], the protein stability index by setting is: under setting [1], 2.83 ± 0.49; under setting [2], 3.12 ± 0.97.

As to PRNSDMKNQGEENGFPDSTGDPLP [EDARADD], the protein stability index came to 5.53 ± 0.26 under setting [1] and 5.36 ± 0.13 under setting [2].

NLAGFILGCQGAQFVSSVPRCDLV [FAM189A2] returned a protein stability index under setting [1] of 2.66 ± 0.59 and a protein stability index under setting [2] of 2.58 ± 0.57.

Consider VDGKTIKAQIWDTAGQERYRAITS [RAB11A], for which the protein stability index under setting [1] was found to be 3.34 ± 0.19 and the protein stability index under setting [2] was found to be 3.68 ± 0.22.

For PEGSQDRNTSWGVVQEPPGRASRF [TLE6], the protein stability index reads like this: under setting [1], 4.83 ± 0.23; under setting [2], 4.57 ± 0.14.

As to AQRRRMDEISDHAKVLTLSDDLER [EIF5], the protein stability index by setting is: under setting [1], 4.98 ± 0.26; under setting [2], 5.04 ± 0.22.

On to VLEAKMTMLTVIEQPVPPTPATPE [EMID1], for which the protein stability index reads like this: under setting [1], 3.72 ± 0.38; under setting [2], 3.89 ± 0.24.

As to KASLWQFLSSEKQICGTHRQTKKM [TRIM43], the protein stability index stood at 2.63 ± 0.27 under setting [1] and 2.71 ± 0.24 under setting [2].

Regarding SHRPNMELCRDAAQFRLLSEVEEL [TEKT4], the protein stability index amounted to 3.82 ± 0.3 under setting [1] and 3.72 ± 0.05 under setting [2].

As for RVSDVQKVLQGGEQEIQFEDFTNT [PKD2L1], the protein stability index runs as follows: under setting [1], 4.8 ± 0.6; under setting [2], 4.85 ± 0.36.
